In US20090029392:

Tested on: T1, Biotin-GDEVDGC biotinylated peptide substrate for caspase-3, coupled to aminated CLIO
T1 sequence: GDEVDGC

Caspase 3
T2 relaxation time (dispersal of the aggregate after cleavage of the peptide): When the inhibitor is not added or capase is added, the aggregate is dispersed resulting in an increase of T2
